Laboratory results: a protein production outcome set (Wang et al. 2014)

Test: label from the status in PepcDB records
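Also: failed if final PepcDB status was selected cloned or expressed and not failed if soluble or beyond.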

Sequence | protein production
MKINPRVIYLSIVFIFLVIMASNVAVADDLEAEKLTKVASNVALDSNPVWSPDGKEILFSRENGLYKVFSDGTGEMKLTSTKGKNFTSDYAWSPDGSKISYIENRYDTAAGPRSDLWIMNSNGEGKKQLLDTIWYRYYYIYTWFPTGSKILYAEIYEEIGGSYWEMDSDGSNKHNIGNMGIANGIALSPDASKIAICAHGPADVDYYIDVGKVGKDLTSFRYGLITHQTQSRQSQIWAPDGSKIVYYAGKNESYYEDENSEIYIVKADGTGRIQLTSDSANDNSPVFSPDGSKIVFVSDKAGNEDIWIMDADGKNKVQLTSDPASDSFPVWSPDGKKIAFWSNRGGNNNIYTLTLENEKTPVAAFCASQTSGNAPLKVSFTDKSTGTPTSWSWSFGDGKTSTLKNPLHIYSKAGKYTVSLTVKNAAGTNMKTITKYITVKTAPVKPIAAFSASPGSGKTPLKVKFTDTSTGTPTAWRWNFGDGSKSFLQNPIHKYSKTGIYTVDLTVKNAAGRNTVTKTDYITVVTKPVAEFSATPTTGKLPLTVEFTDKSTGVPTGWIWSFGDGTISREQNPKHQYLQEGKYKIILSVTNVAGSSTIKKINYIRVTTNTRPRIL | failed
MKKSLIAFILIFMLVLSGCGMKDNDKQGSNDNGSSKSPYHRIVSLMPSNTEILYELGLGKYIVGVSTVDDYPKDVKKGKKQFDALNLNKEELLKAKPDLILAHESQKATANKVLSSLEKQGIKVVYVKDAQSIDETYNTFKQIGKLTHHDKQAEQLVEETKDNIDKVIDSIPAHHKKSKVFIEVSSKPEIYTAGKHTFFNDMLEKLEAQNVYSDINGWNPVTKESIIKKNPDILISTEAKTRSDYMDIIKKRGGFNKINAVKNTRIEVVNGDEVSRPGPRIDEGLKELRDAIYRK | failed
MSTPLQGIKVLDFTGVQSGPSCTQMLAWFGADVIKIERPGVGDVTRHQLRDIPDIDALYFTMLNSNKRSIELNTKTAEGKEVMEKLIREADILVENFHPGAIDHMGFTWEHIQEINPRLIFGSIKGFDECSPYVNVKAYENVAQAAGGAASTTGFWDGPPLVSAAALGDSNTGMHLLIGLLAALLHREKTGRGQRVTMSMQDAVLNLCRVKLRDQQRLDKLGYLEEYPQYPNGTFGDAVPRGGNAGGGGQPGWILKCKGWETDPNAYIYFTIQEQNWENTCKAIGKPDWITDPAYSTAHARQPHIFDIFAEIEKYTVTIDKHEAVAYLTQFDIPCAPVLSMKEISLDPSLRQSGSVVEVEQPLRGKYLTVGCPMKFSAFTPDIKAAPLLGEHTAAVLQELGYSDDEIAAMKQNHAI | failed
MSLTEPRIVATYHIASDAERIEQRALALAIEQSVECPLEAIGDPAIVANIVGRVEDVAELQPGRYAVRIGLAAATAPAEPGQLLNMLFGNSSIQPDIALADVELPAHYLTAFGGPRVGLAGIRTLTGAQSRALTASALKPQGLSPAALASIAHQLALGGVDLIKDDHGLADQAFSPFAERAAAVGKAVREANAARGGRTLYAPNISGTLDDMRRQLGVIRDEGIGAVLVAPMIVGVSNFHAIVKEAAGLVVVAHPAMAGAAKIAAPLLLGRLFRLFGADATVFPNYGGRFAYSTASCLALAQAARDPFGKLNACIPTPAGGIMLQRVNELLRFYGQDVMLLIGGSLLASRERLTEQASRFVNKVADYGQREGHHHHHH | not failed
MPNFSKNEEVLFSAVNEIFEEKIPFNKIIGLKVRFISPEQVKLSFEMRDELIGNAIRRMLYGGVISSAIDMTAGLAAFMGFQEKMSGKPMEEKLAMIGRLSTMSLHVEYLRPGLGREFVCTGYNVRTGNKVAVIRTELMNDQDELIAVGSVSYILV | not failed
QTVAQGKLTLSVPKAVGRFVIHPLMMAFFHRYPQVDVCLRLEDRPLDFIDDGIDLALRITDTPSPGLHGKPLMPIRHVICATEAYLQQHGTPYTPQDLRSHSCISLGETPADARWKFRREGKTETVQTYGRYAANHTAVR | failed
MLLHLSDLHFGTEKPECLTAIEDFCRQHRPEVIVVSGDLTQRARFIQFYNCKQFLESLNVPYLVVPGNHDIPLYHLWNRFFSPFVRYQFFFGELEPTLETEHFFIVGVNSIRRRYHTRGYISLEQIQKTNEILKQAPSHKLKLVVLHQPFYTPPDQPHGIKDCPVLGRMALDNWSKSGLFGVLHGHLHKTAVYDLTQIYQLRVDESVYDIHAGTATSYRLYKNLPNSFNVILNDGRVEHYWFDPASKAFVLKTDLYEK | failed
MILMMENRMPKGIQKTETSEKNIEKVLNAYDKQQHHHQDDLAIQYLPAVRAMAFRLKERLPSSIDFNDLVSIGTEELIKLARRYESALNDSFWGYAKTRVNGAMLDYLRSLDVISRSSRKLIKSIDIEITKHLNEHGKEPSDAYLAQTLGENIEKIKEAKTASDIYALVPIDEQFNAIEQDEITKKIEAEELLEHVQKALNQMSEREQILIQLYYFEELNLSEIKEILGITESRISQIIKEVIKKVRKSLGVDHG | failed
MMPKRFNTSGFDTTLRLPSYYGFLHLTQSLTLNSRVFYGARHVTPPAIRIGSNPVQSLLLFRAPTQLTGWNRSSRDLLGRRVSFSDRSDGVDLLSSSPILSTNPNLDDSLTVIALPLPHKPLIPGFYMPIHVKDPKVLAALQESTRQQSPYVGAFLLKDCASTDSSSRSETEDNVVEKFKVKGKPKKKRRKELLNRIHQVGTLAQISSIQGEQVILVGRRRLIIEEMVSEDPLTVRVDHLKDKPYDKDNAVIKASYVEVISTLREVLKTNSLWRDQDIGDFSYQHLADFGAGISGANKHKNQGVLTELDVHKRLELTLELVKKQVEINKIKETDDGSSLSAKIRVRIDTKRDKIPKHVIKVMEEEFTKLEMLEENYSDFDLTYNYLHWLTVLPWGNFSYENFDVLRAKKILDEDHYGLSDVKERILEFIAVGRLRGTSQGKIICLSGPPGVGKTSIGRSIARALDRKFFRFSVGGLSDVAEIKGHCQTYVGAMPGKMVQCLKSVGTANPLILFDEIDKLGRCHTGDPASALLEVMDPEQNAKFLDHFLNVTIDLSKVLFVCTANVIEMIPGPLLDRMEVIDLSGYVTDEKMHIARDYLVKKTCRDCGIKPEHVDLSDAALLSLIENYCREAGVRNLQKQIEKIYRKVALELVRQGAVSFDVTDTKDTKSLAKTDSEVKRMKVADIMKILESATGDSTESKTKQSGLVAKTFEKVMIDESNLADYVGKPVFQEEKIYEQTPVGVVMGLAWTSMGGSTLYIETTFVEEGLGKGGLHITGQLGDVMKESAQIAHTVARRIMFEKEPENLFFANSKLHLHVPEGATPKDGPSAGCTMITSFLSLAMKKLVRKDLAMTGEVTLTGRILPIGGVKEKTIAARRSQIKTIIFPEANRRDFEELAENMKEGLDVHFVDEYEKIFDLAFNYDH | failed
MWQNFYLTTLKLSQYTQEEKPILPADNMDPRALASVHAWEHGDFMCKGYIQSRLSDPLYNVYSNVETSNELWDSLDKKYQTKDAGSQKYAAAKFLDYKMVDSRPMMVQVEELTCLFHDI | not failed
MLAAGEGKRMGACKPLLPLGASTVLAHVAKTLLPAINGPLVVVTGHHGDAVTAEALRLSLETAENTTPQDGMFSSVRTGIAHIVGRVDGVLVLPADIPFVRTATCALVVEAFRRHRAAVTYPTLCGERGHPPLLDADTMRAVLASSGDGGLRGVLLALERQGGTTHDVAVADEGIVTDMDTPADHAQLVARHPLRHIPTPREREALLEMAGTPARVRAHCRMVARAALAMAAHLEATRRGFISPFARQSAPHGISTSGAHAEPRSVPASTTTHAVHAEGNTTLPHTATAHVACPPPDVTTGPMPTCQPGHMPDHMPGTARDAAQQAPAATASPQRLDRPLIHAAATLHDICKGTQRHEAAGGALLTRHGFPEVGSIIAAHRDIAPQAGPEIDEAALVMLADKYVRGVSLIPVEERFDERLREWAHRPDVACDIAARKARVLMVRDLFESETATELFPLLQRKVRRGTFLEHHHHHH | failed
MSLKTYKGYLIDLDGTMYNGTEKIEEACEFVRTLKDRGVPYLFVTNNSSRTPKQVADKLVSFDIPATEEQVFTTSMATAQHIAQQKKDASVYVIGEEGIRQAIEENGLTFGGENADFVVVGIDRSITYEKFAVGCLAIRNGARFISTNGDIAIPTERGLLPGNGSLTSVLTVSTGVQPVFIGKPESIIMEQAMRVLGTDVSETLMVGDNYATDIMAGINAGMDTLLVHTGVTKREHMTDDMEKPTHAIDSLTEWIPYIEGHHHHHH | not failed
